Here are results for one molecule from patent US20050100540A1, “Platelet-activating factor acetylhydrolase” (priority 1993, published 2005).

The test system of the test is OVA-induced eosinophil infiltration of the trachea. In words: Antigen-induced eosinophil recruitment to trachea. Type of test: in vivo, mouse. The note with it: 750 units IV before and 24 h after aerosolized OVA (group 4). The protocol:
Recombinant PAF-AH enzyme of the invention was also tested for efficacy in a model of antigen-induced eosinophil recruitment. The accumulation of eosinophils in the airway is a characteristic feature of late phase immune responses which occur in asthma, rhinitis and eczema. BALB/c mice (Charles River) were sensitized by two intraperitoneal injections consisting of 1 μg of ovalbumin (OVA) in 4 mg of aluminum hydroxide (Imject alum, Pierce Laboratories, Rockford. Ill.) given at a 2 week interval. Fourteen days following the second immunization, the sensitized mice were challenged with either aerosolized OVA or saline as a control.
Prior to challenge mice were randomly placed into four groups, with four mice/group. […] Mice in groups 2 and 4 were pretreated with 750 units of PAF-AH (activity of 5,500 units/ml given in 140 μl of PAF-AH buffer). Thirty minutes following administration of PAF-AH or buffer, mice in groups 1 and 2 were exposed to aerosolized PBS as described below, while mice in groups 3 and 4 were exposed to aerosolized OVA. Twenty-four hours later mice were treated a second time with either 140 μl of buffer (groups 1 and 3) or 750 units of PAF-AH in 140 μl of buffer (groups 2 and 4) given by intravenous injection.
Eosinophil infiltration of the trachea was induced in the sensitized mice by exposing the animals to aerosolized OVA. […]

B1: PAF-AH: Recombinant human plasma platelet-activating factor acetylhydrolase (beginning at Ile42) expressed in E. coli from construct pUC trp AH (protein)
chain: IQVLMAAASFGQTKIPRGNGPYSVGCTDLMFDHTNKGTFLRLYYPSQDNDRLDTLWIPNKEYFWGLSKFLGTHWLMGNILRLLFGSMTTPANWNSPLRPGEKYPLVVFSHGLGAFRTLYSAIGIDLASHGFIVAAVEHRDRSASATYYFKDQSAAEIGDKSWLYLRTLKQEEETHIRNEQVRQRAKECSQALSLILDIDHGKPVKNALDLKFDMEQLKDSIDREKIAVIGHSFGGATVIQTLSEDQRFRCGIALDAWMFPLGDEVYSRIPQPLFFINSEYFQYPANIIKMKKCYSPDKERKMITIRGSVHQNFADFTFATGKIIGHMLKLKGDIDSNVAIDLSNKASLAFLQKHLGLHKDFDQWDCLIEGDDENLIPGTNINTTNQHIMLQNSSGIEKYN
Consider B1, for which the “Eosinophils in the submucosal tissue of the trachea” value is on record as “very few eosinophils in the submucosal tissue”.
